Assays:
[1] = test system: ovarian cancer cells SKOV3; experiment: SKOV3 ovarian tumor growth and microvessel density in nude mice; format: in vivo
Method: The MAGP2 siRNA molecule had the following sequence: 5′-[…]-3′ (sense; SEQ ID NO: 1) and 5′-[…]-3′ (antisense; SEQ ID NO: 2). Five stable clones were selected for each group. A total of 5×10^5 cells from each clone were injected subcutaneously into the posterior neck region of 5 nude mice (6 to 8 week-old female nude mice, Charles River, Mass.). After 4 weeks, the mice were sacrificed and the tumors developed from each mouse were removed and weighed. They samples were subsequently fixed in formalin and processed for histological evaluation. MAGP2 expression in tumor tissues was evaluated using a rabbit anti-human MAGP2 antibody and the microvessel density was determined by immunolocalization of CD34+ blood vessels using a goat anti-mouse polyclonal antibody (FIG. 8A). Significant difference in the weight of the tumors between the MAGP2 siRNA and the control group were found as determined by Mann-Witney U test (FIG. 8B). A p value <0.05 was considered as significant.

αvβ3 integrin receptor = αvβ3 integrin receptor (human, UniProt P06756 31-1048; P05106 27-788); experiment: cell-based or functional assay
A224 cells = experiment: A224 ovarian cancer cell adhesion on recMAGP2 coated wells; format: cell-based; details: plated on recMAGP2 coated wells, relative to control wells; P<0.0005
Excerpt: (§1) Cell Lines and Culture Conditions. A224, UCI107 and OVCA429 ovarian cancer cell lines were maintained in RPMI (Invitrogen Life Technologies Inc, Carlsbad, Calif.) supplemented with 10% fetal bovine serum (Gemini Bio-Products, Woodland, Calif.) and 1% L-glutamine (Invitrogen Life Technologies).
(§2) Screening a serous ovarian cancer cell line panel for MAGP2 expression by qRT-PCR (FIG. 4A) and western blot, as well as αvβ3 receptor status through FACs analysis (FIG. 4B, select cell lines only), facilitated the selection of cell lines amenable for downstream examination. Quantitative RT-PCR was performed as described in Example 1. Among cell lines expressing MAGP2, only the SKOV3 cell line co-expressed the αvβ3 receptor. Two cell lines, A224 and OVCA429, were positive for αvβ3, yet lacked measurable levels of MAGP2. These cell lines were chosen for subsequent analyses involving the recombinant protein along with UCI107, which was negative for both the receptor and MAGP2.
(§3) The effect of recMAGP2 on adhesion was evaluated for A224 and UCI107 cell lines.

UCI107 cells = experiment: UCI107 ovarian cancer cell adhesion on recMAGP2; format: cell-based; details: UCI107 negative for αvβ3 receptor and MAGP2
Excerpt: as §1, §2, §3

OVCA429 cells = experiment: OVCA429 cell survival under increasing concentrations of recMAGP2; format: cell-based; details: 200 ng/ml recMAGP2, 96 hours; P<0.01
Excerpt: as §1
Based on the pathway analysis, αvβ3 mediated signaling was implicated in ovarian tumor cell survival through the stimulation of critical cell-cycle checkpoint regulators. To assess this observation, OVCA429 cells were cultured under increasing concentrations of purified recMAGP2 and harvested at 24-hour intervals.

HUVE cells [2] = experiment: HUVE cell motility assay (FluoroBlok insert, recMAGP2 as chemoattractant); format: cell-based, human; details: 2.5 hours, compared to medium alone, P<0.05
Method: Cell motility was evaluated for HUVE cells (5×10^4) by adding them to the top chamber of a BD Falcon HTS FluoroBlok insert with a PET membrane with eight […] pore (BD Biosciences) in […] of medium with 0.2% FBS. The inserts were placed into the bottom chamber wells of a 24-well plate containing medium with increasing concentrations of recombinant MAGP2. After 2.5 hr, cells that migrated through the pores of the membrane to the bottom chamber were stained with calcein […] (Molecular Probes, Eugene, Oreg.) in PBS for 30 min at 37° C. The fluorescence of migrated cells was quantified using a fluorometer set at 485 nm excitation and 530 nm emission. Parallel control experiments were performed using the MAGP2 elution buffer. HUVECs motility was mediated through αvβ3 integrin, cells were pre-treated either with an anti-αvβ3 integrin antibody (Santa Cruz Laboratories #sc-7312) or with an equal amount of IgG (ICL #RS-90G1) for 30 minutes before the addition of 100 ng/ml MAGP2. The motility assay was then performed as described above.
(§4) To determine the effect of recMAGP2 on the HUVE cell motility, recMAGP2 was used as a chemoattractant. […] Similarly, exposing HUVE cells seeded onto Matrigel matrix to reMAGP2 stimulated a 2-fold increase in invasion (P<0.05) (FIG. 5D).

HUVE cells [3] = experiment: HUVE cell invasion through Matrigel; format: cell-based, human; details: cells seeded onto Matrigel matrix; P<0.05
Method: (§5) HUVE cell invasion was measured by adding cells (5×10^4) to the top chamber of a BD Falcon HTS FluoroBlok insert with a PET membrane coated with a thin layer of Matrigel. To evaluate the effect of MAGP2 on HUVE cell proliferation, 1,000 HUVECs/well were plated in 8 wells of a 96-well plate in EBM2 with 2.0% FBS. The next day the media were removed and replaced with 0.2% FBS media with elute buffer control or with recombinant MAGP2 protein at 4.5 ng/ml. After 2 days, elute control or MAGP2 was added a second time. Cell number was quantified via MTT assay.
as §4

HUVE cells [4] = experiment: HUVE cell survival under low serum (MTT assay); format: cell-based, human; details: 5 days, P<0.005
Method: as §5
In addition to motility and invasion, HUVE cell survival under low serum conditions was prolonged by recMAGP2.

FAK = FAK phosphorylation (tyrosine 407) western blot in HUVE cells; format: cell-based, human; details: 100 ng/ml, 30 minutes
Method: Western Blot Analysis. To assess FAK phosphorylation in HUVE cells, cells were plated on 60 mm^2 dishes treated with 100 ng/ml MAGP2 recombinant protein or elute buffer control. After 30 minutes the cells were washed with 4° C. PBS and lysed in RIPA buffer containing 0.1% SDS and proteinase inhibitors. Western blotting was then performed with 5 μg of protein under denaturing conditions on a 4-12% NuPAGE gel and transferred to a PVDF membrane. The membrane was blocked in 5% nonfat milk for 1 hr at RT, probed with a 1:1000 dilution of anti-FAK[pY^407] rabbit polyclonal 1° antibody (Biosource) for 2 hr at RT. The blot was washed 3 times for 5 min with TBST and probed with a 1:2000 dilution of goat anti-rabbit HRP conjugated 2° antibody (Amersham) for 1 hr at RT. The blot was washed 3 times for 10 min with TBST and bands were detected via chemiluminscence using an ECL kit (Amersham).
Since FAK is a mediator of αvβ3 signaling, the phosphorylation status of FAK in recMAGP2 treated cells was confirmed. Using a phosphorylation specific antibody recognizing tyrosine 407, a western blot comparing phospho-FAK to total FAK was completed for both treated and untreated HUVE cell isolates.

HUVE cells [5] = experiment: Ca2+ oscillation in HUVE cells (fluo-4/AM, confocal microscope); format: cell-based, human
Method: To identify the mechanism underlying the stimulation of FAK by recMAGP2, Ca^2+ oscillation was assessed in treated HUVE cells. […] This may account in part for the enhanced motility and survival of HUVE cells as described in the pathway analysis.

HUVE cells [6] = experiment: Affymetrix U133 Plus 2.0 microarray of recMAGP2 treated HUVE cells; format: cell-based, human; details: P<0.01 and fold-change ≧1.5; treated n=3 vs untreated n=3
Excerpt: The marked effect of recMAGP2 on HUVE cell behavior indicated a change in cellular regulation had taken place possibly affecting gene expression. To explore the consequences of recMAGP2 induced signaling, Affymetrix® U133 Plus 2.0 microarrays were completed for a series of recMAGP2 treated (n=3) and untreated (n=3) HUVE cell isolates. A total of 274 probe sets were identified for pathway analysis in cells exposed to recMAGP2 (P<0.01 and fold-change ≧1.5) (FIG. 6A). […] Deregulation of these genes may lead to a reduction in vessel integrity permitting endothelial cell migration and neovascularization.

Chain of αvβ3 integrin receptor (P06756 31-1048, chain 1 of 2): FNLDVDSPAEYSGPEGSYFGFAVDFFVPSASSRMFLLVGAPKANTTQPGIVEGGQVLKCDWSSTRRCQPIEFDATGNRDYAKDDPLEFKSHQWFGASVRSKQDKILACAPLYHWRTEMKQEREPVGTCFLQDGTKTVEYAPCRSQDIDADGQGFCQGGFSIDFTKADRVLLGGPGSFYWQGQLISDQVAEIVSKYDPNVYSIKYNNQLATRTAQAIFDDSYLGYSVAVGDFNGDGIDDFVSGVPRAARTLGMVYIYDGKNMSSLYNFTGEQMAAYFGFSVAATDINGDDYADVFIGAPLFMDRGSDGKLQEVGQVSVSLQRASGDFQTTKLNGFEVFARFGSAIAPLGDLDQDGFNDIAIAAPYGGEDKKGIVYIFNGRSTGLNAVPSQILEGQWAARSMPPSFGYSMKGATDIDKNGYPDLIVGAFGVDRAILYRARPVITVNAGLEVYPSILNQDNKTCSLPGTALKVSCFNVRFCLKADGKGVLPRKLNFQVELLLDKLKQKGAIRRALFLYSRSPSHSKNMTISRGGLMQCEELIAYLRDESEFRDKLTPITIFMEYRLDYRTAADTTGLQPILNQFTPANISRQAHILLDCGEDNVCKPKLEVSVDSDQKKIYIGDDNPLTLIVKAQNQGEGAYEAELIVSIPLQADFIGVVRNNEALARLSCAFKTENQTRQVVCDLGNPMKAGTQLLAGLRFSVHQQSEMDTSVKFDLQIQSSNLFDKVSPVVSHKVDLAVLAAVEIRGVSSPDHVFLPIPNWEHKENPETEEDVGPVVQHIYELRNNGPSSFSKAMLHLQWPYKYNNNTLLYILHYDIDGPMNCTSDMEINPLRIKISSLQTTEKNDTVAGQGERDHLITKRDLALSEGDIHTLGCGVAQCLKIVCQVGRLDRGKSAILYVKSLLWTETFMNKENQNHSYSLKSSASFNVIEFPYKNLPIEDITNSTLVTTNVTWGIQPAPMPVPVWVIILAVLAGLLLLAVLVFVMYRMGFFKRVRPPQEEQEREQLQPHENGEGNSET
Chain of αvβ3 integrin receptor (P05106 27-788, chain 2 of 2): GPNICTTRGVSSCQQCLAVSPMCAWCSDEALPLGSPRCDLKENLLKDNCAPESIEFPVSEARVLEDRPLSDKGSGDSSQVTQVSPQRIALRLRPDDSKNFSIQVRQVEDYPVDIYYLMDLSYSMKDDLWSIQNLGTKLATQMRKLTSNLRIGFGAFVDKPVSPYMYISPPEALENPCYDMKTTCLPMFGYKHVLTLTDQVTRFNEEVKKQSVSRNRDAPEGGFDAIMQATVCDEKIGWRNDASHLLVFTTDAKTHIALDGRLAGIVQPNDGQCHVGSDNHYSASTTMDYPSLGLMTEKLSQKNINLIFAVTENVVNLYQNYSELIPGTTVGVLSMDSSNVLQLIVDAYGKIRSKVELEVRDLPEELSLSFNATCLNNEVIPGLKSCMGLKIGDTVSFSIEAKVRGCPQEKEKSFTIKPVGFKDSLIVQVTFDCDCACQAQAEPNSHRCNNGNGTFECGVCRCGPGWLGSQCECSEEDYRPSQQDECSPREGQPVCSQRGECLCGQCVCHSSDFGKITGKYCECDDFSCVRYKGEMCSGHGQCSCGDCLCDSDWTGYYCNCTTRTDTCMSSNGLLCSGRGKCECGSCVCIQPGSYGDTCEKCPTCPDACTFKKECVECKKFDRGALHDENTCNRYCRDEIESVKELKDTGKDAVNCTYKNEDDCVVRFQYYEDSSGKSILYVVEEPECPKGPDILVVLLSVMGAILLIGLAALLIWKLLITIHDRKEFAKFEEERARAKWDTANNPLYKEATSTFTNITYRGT

Row | adhesion of HUVE cells plated on recMAGP2 (αvβ3 integrin receptor) | Molecule | weight of the tumors ([1]; SKOV3 stably transfected, subcutaneous, nude mice, 4 weeks, vs empty vector, Mann-Witney U test p<0.05) | CD34 (microvessel density) in tumor tissues ([1]; immunolocalization of CD34+ blood vessels, FIG. 8A) | MAGP2 expression in tumor tissues ([1]; immunostaining, FIG. 8A) | A224 cell adhesion (A224 cells) | UCI107 cell adhesion (UCI107 cells) | OVCA429 cell survival (OVCA429 cells) | HUVE cell motility (HUVE cells [2]) | increase in HUVE cell invasion (HUVE cells [3]) | HUVE cell survival under low serum conditions (HUVE cells [4]) | phosphorylated FAK (tyrosine 407) versus total FAK (FAK) | [Ca2+]I levels (HUVE cells [5]; HUVE cells loaded with fluo-4/AM) | [Ca2+]I oscillation frequency (HUVE cells [5]; individual HUVE cells) | probe sets identified in cells exposed to recMAGP2 (HUVE cells [6])
1 | – | MAGP2 siRNA: siRNA 5′-ACCGGTTAAACAATGCATTCAT-3′ (sense; SEQ ID NO: 1) and 5′-ATGAATGCATTGTTTAACCGGC-3′ (antisense; SEQ ID NO: 2) (listed as DNA, chemistry not fully specified) | significantly decrease the weight | decreased | decreased MAGP2 expression | – | – | – | – | – | – | – | – | – | –
2 | 2.5 fold | purified recombinant MAGP2 (microfibril associated glycoprotein 2) (ligand, UniProt Q13361 22-173, looked up) IPLGVNSQRGDDVTQATPETFTEDPNLVNDPATDETVLAVLADIAPSTDDLASLSEKNTTAECWDEKFTCTRLYSVHRPVKQCIHQLCFTSLRRMYIVNKEICSRLVCKEHEAMKDELCRQMAGLPPRRLRRSNYFRLPPCENVDLQRPNGL | – | – | – | increase in adhesion | only a modest increase in adhesion at high concentrations | significant difference in survival | increased the motility of the cells in a dose dependent manner | 2 fold | prolonged | increase in phosphorylated FAK | immediate increase | 100 s/cycle | 274
